Measurements reported in patent US20070020327A1.

B1: peptide 1126.06 (PSM.662) (peptide)
peptide: RMMNDQLMFL
modifications: not checked
B2: Kallikrein 146 … (peptide)
peptide: PALGTTCYA
modifications: not checked
B3: PSA 142 … (peptide)
peptide: PALGTTCYA
modifications: not checked
B4: … (PSA, position 119, 11 amino acids) (peptide)
peptide: LLRLSEPAELT
modifications: not checked
B5: Kallikrein (hK2) peptide … (position 175, 9 amino acids) (peptide)
peptide: SLHLLSNDM
modifications: not checked
B6: peptide 1126.14 (PSM.469) (peptide)
peptide: LMYSLVHNL
modifications: not checked
B7: peptide 1126.10 (PSM.27) (peptide)
peptide: VLAGGFFLL
modifications: not checked
B8: peptide 1129.08 (PSM.711) (peptide)
peptide: ALFDIESKV
modifications: not checked
B9: Kallikrein (hK2) peptide … (position 11, 11 amino acids) (peptide)
peptide: SVGCTGAVPLI
modifications: not checked
B10: … (PSA, position 62) (peptide)
peptide: CIRNKSVILL
modifications: not checked
B11: … (PAP, position 372) (peptide)
peptide: CMTTNSHQGT
modifications: not checked
B12: … (PSA, position 169) (peptide)
peptide: CVDLHVISNDV
modifications: not checked
B13: PSA.118 … (peptide)
peptide: MLLRLSEPAEL
modifications: not checked
B14: PAP.6 … (peptide)
peptide: LLLARAASLSL
modifications: not checked
B15: PAP.112 … (peptide)
peptide: TLMSAMTNL
modifications: not checked
B16: PSM.469 … (peptide)
peptide: LMYSLVHNL
modifications: not checked
B17: PSM.663 … (peptide)
peptide: MMNDQLMFL
modifications: not checked
B18: PSA.117 … (peptide)
peptide: LMLLRLSEPA
modifications: not checked
B19: PSA.118 … (peptide)
peptide: MLLRLSEPA
modifications: not checked
B20: PSA.143 ALGTTCYA (peptide)
peptide: ALGTTCYA
modifications: not checked
B21: PSA.161 … (peptide)
peptide: FLTPKKLQCV
modifications: not checked
B22: PSA.166 … (peptide)
peptide: KLQCVDLHV
modifications: not checked
B23: PAP.21 … (peptide)
peptide: LLFFWLDRSV
modifications: not checked
B24: PAP.30 … (peptide)
peptide: VLAKELKFV
modifications: not checked
B25: PAP.92 … (peptide)
peptide: FLNESYKHEQV
modifications: not checked
B26: PAP.135 … (peptide)
peptide: ILLWQPIPV
modifications: not checked
B27: PAP.284 … (peptide)
peptide: IMYSAHDTTV
modifications: not checked
B28: PAP.299 … (peptide)
peptide: ALDVYNGLL
modifications: not checked
B29: PSM.26 … (peptide)
peptide: LVLAGGFFL
modifications: not checked
B30: PSM.27 … (peptide)
peptide: VLAGGFFLL
modifications: not checked
B31: PSM.168 … (peptide)
peptide: GMPEGDLVYV
modifications: not checked
B32: PSM.288 … (peptide)
peptide: GLPSIPVHPI
modifications: not checked
B33: PSM.441 … (peptide)
peptide: LLQERGVAYI
modifications: not checked
B34: PSM.662 … (peptide)
peptide: RMMNDQLMFL
modifications: not checked
B35: PSM.667 … (peptide)
peptide: QLMFLERAFI
modifications: not checked
B36: PSM.711 … (peptide)
peptide: ALFDIESKV
modifications: not checked
B37: HuK2.165 … (peptide)
peptide: FLRPRSLQCV
modifications: not checked
B38: HuK2.175 … (peptide)
peptide: SLHLLSNDMCA
modifications: not checked
B39: … (PSM, position 200) (peptide)
peptide: IVIARYGKV
modifications: not checked
B40: … (PSM, position 66) (peptide)
peptide: KAENIKKFL
modifications: not checked
B41: … (PSM, position 723) (peptide)
peptide: KAWGEVKRQI
modifications: not checked
B42: … (PSM, position 193) (peptide)
peptide: KINCSGKIV
modifications: not checked
B43: … (PSM, position 193) (peptide)
peptide: KINCSGKIVI
modifications: not checked
B44: … (PSM, position 199) (peptide)
peptide: KIVIARYGKV
modifications: not checked
B45: … (PAP, position 282) (peptide)
peptide: KLIMYSAHDT
modifications: not checked
B46: … (PSM, position 304) (peptide)
peptide: KLLEKMGGSA
modifications: not checked
B47: … (PAP, position 234) (peptide)
peptide: KLRELSELSL
modifications: not checked
B48: … (PSM, position 122) (peptide)
peptide: KTHPNYISI
modifications: not checked
B49: … (PSM, position 122) (peptide)
peptide: KTHPNYISII
modifications: not checked
B50: … (PSM, position 623) (peptide)
peptide: KTYSVSFDSL
modifications: not checked
B51: peptide 1419.13 … (HuK2.120.V11) (peptide)
peptide: DLMLLRLSEPV
modifications: not checked
B52: … (Kallikrein, position 226) (peptide)
peptide: ITSWGPEPCAL
modifications: not checked
B53: … (Kallikrein, position 131) (peptide)
peptide: KITDVVKVLGL
modifications: not checked

Target: HLA-A*0206 (human)
Test: competition with 125I-labelled standard peptide for purified HLA, gel filtration
Details: remark: other sources report otherwise

Binder | IC50 | binding affinity ratio (IC50 of standard peptide / IC50 of test peptide)
B1 | 40 nM | –
B2 | – | 0.0002
B3 | – | 0.0002

Same assay, conditions: remark: other sources report otherwise; scale: ratio

Binder | binding affinity ratio
B4 | 0.0002
B5 | -0.0001

Target: HLA-A*0202 (human)
Test: as above
Details: not given

Binder | IC50
B6 | 0.4 nM

Same assay, conditions: remark: other sources report otherwise

Binder | IC50
B7 | 0.2 nM
B8 | 0.7 nM

Same assay, conditions: remark: other sources report otherwise; scale: ratio

Binder | binding affinity ratio
B9 | 0.001

Target: HLA-A*0201 (human)
Test: as above
Details: not given

Binder | IC50
B6 | 64 nM

Same assay, conditions: remark: other sources report otherwise; scale: ratio

Binder | binding affinity ratio
B4 | 0.0023
B5 | 0.0003
B9 | 0.01

Target: HLA-A*0201 (human)
Test: inhibition of 125I-labelled standard peptide binding to purified HLA-A*0201, gel filtration
Details: not given

Binder | binding affinity ratio (IC50 of standard peptide / IC50 of test peptide)
B10 | 0.0001
B11 | 0.0002
B12 | 0.0001

Target: HLA-A*0201 (human)
Test: inhibition of 125I-labelled probe peptide binding to purified HLA-A*0201, gel filtration
Details: not given

Binder | IC50
B13 | < 200 nM
B14 | < 200 nM
B15 | < 200 nM
B16 | < 200 nM
B17 | < 200 nM

Same assay, conditions: remark: other sources report otherwise

Binder | IC50
B18 | < 200 nM
B19 | < 200 nM
B20 | < 200 nM
B21 | < 200 nM
B22 | < 200 nM
B23 | < 200 nM
B24 | < 200 nM
B25 | < 200 nM
B26 | < 200 nM
B27 | < 200 nM
B28 | < 200 nM
B29 | < 200 nM
B30 | < 200 nM
B31 | < 200 nM
B32 | < 200 nM
B33 | < 200 nM
B34 | < 200 nM
B35 | < 200 nM
B36 | < 200 nM
B37 | < 200 nM
B38 | < 200 nM

Target: HLA-A*0201 (human)
Test: competitive inhibition of 125I-labelled standard peptide binding to purified HLA, gel filtration
Details: not given

Binder | binding affinity ratio (ratio to standard peptide)
B39 | 0.0001
B40 | 0.0002
B41 | 0.0001
B42 | 0.0002
B43 | 0.0001
B44 | 0.0002
B45 | 0.0002
B46 | 0.0003
B47 | 0.004
B48 | 0.0002
B49 | 0.0001
B50 | 0.0002

Same assay, conditions: remark: other sources report otherwise

Binder | IC50 | binding affinity ratio (ratio to standard peptide)
B51 | 50 nM | –
B52 | – | 0.0003
B53 | – | 0.0002
